The values that follow come from patent US20140193378A1 (UNIVERSITY OF MIAMI, published 2014).

Non-standard residues stand in square brackets, D forms with d. No end group written: not given here. *: point of attachment. Desaminotyrosyl = O=C(CCc1ccc(O)cc1)*; NMeY = CN[C@@H](Cc1ccc(O)cc1)C(=O)O; Agmatine = N=C(N)NCCCCN*; Nle = CCCC[C@H](N)C(=O)O; Orn = NCCC[C@H](N)C(=O)O; dAbu = CC[C@@H](N)C(=O)O; Abu = CC[C@H](N)C(=O)O; Aoc = NCCCCCCCC(=O)O; GABA = NCCCC(=O)O

Assay [1] deals with T1, human GHRH receptor (human pituitary membrane homogenates) (human, UniProt Q02643 23-423).
T1 construct: whole, on cells; Native receptor in human pituitary membrane homogenates, not on intact cells; also called hGHRH receptor
T1 sequence (looked up): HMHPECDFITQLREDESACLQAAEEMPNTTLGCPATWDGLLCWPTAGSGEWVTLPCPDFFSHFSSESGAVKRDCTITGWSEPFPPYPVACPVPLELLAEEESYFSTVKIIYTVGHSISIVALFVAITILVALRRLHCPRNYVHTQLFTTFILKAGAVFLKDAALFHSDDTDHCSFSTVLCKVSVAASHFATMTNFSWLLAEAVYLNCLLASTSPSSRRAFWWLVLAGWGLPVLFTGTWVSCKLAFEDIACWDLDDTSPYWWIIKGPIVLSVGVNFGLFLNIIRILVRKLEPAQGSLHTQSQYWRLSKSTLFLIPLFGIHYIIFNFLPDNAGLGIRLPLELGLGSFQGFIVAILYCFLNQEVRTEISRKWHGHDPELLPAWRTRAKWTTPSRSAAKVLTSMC
Briefly: radioligand competition vs 125I-JV-1-42 (0.2 nM), human pituitary membranes. The source says: Normal human pituitaries were purchased from the National Hormone and Peptide Program (A. F. Parlow, Los Angeles, County Harbor-UCLA Medical Center, Torrance, Calif.).
(In general: Displacement assays read how much labelled ligand stays bound in the presence of the test substance.)

In assay [2] the target is T2, human GHRH receptor (human pituitary membrane homogenates) (human), Q02643.
T2 chain: T1 sequence (looked up)
Described as above.

B1: P-25504 [Dat^1, D-Abu^2, Orn^12, Abu^15, Orn^21, Nle^27, Gab^30]hGHRH(1-30)NH2 (peptide)
peptide: [Desaminotyrosyl][dAbu]DAIFTNSYR[Orn]VL[Abu]QLSAR[Orn]LLQDI[Nle]SR[GABA]-NH2
SMILES: CCCC[C@H](NC(=O)[C@@H](NC(=O)[C@H](CC(=O)O)NC(=O)[C@H](CCC(N)=O)NC(=O)[C@H](CC(C)C)NC(=O)[C@H](CC(C)C)NC(=O)[C@H](CCCN)NC(=O)[C@H](CCCNC(=N)N)NC(=O)[C@H](C)NC(=O)[C@H](CO)NC(=O)[C@H](CC(C)C)NC(=O)[C@H](CCC(N)=O)NC(=O)[C@H](CC)NC(=O)[C@H](CC(C)C)NC(=O)[C@@H](NC(=O)[C@H](CCCN)NC(=O)[C@H](CCCNC(=N)N)NC(=O)[C@H](Cc1ccc(O)cc1)NC(=O)[C@H](CO)NC(=O)[C@H](CC(N)=O)NC(=O)[C@@H](NC(=O)[C@H](Cc1ccccc1)NC(=O)[C@@H](NC(=O)[C@H](C)NC(=O)[C@H](CC(=O)O)NC(=O)[C@@H](CC)NC(=O)CCc1ccc(O)cc1)[C@@H](C)CC)[C@@H](C)O)C(C)C)[C@@H](C)CC)C(=O)N[C@@H](CO)C(=O)N[C@@H](CCCNC(=N)N)C(=O)NCCCC(N)=O
notes: also called Peptide 25504
As to B1, the “Relative affinity (Binding potency) vs JI-38” value (from here on “Relative affinity”) in assay [1] came out at 3.02 fold.

B2: P-21300 [Dat^1, D-Ala^2, Orn^12, Abu^15, Orn^21, Nle^27, Asp^28, Amc^30]hGHRH(1-30)NH2 (peptide)
peptide: [Desaminotyrosyl][dA]DAIFTNSYR[Orn]VL[Abu]QLSAR[Orn]LLQDI[Nle]DR[Aoc]-NH2
SMILES: CCCC[C@H](NC(=O)[C@@H](NC(=O)[C@H](CC(=O)O)NC(=O)[C@H](CCC(N)=O)NC(=O)[C@H](CC(C)C)NC(=O)[C@H](CC(C)C)NC(=O)[C@H](CCCN)NC(=O)[C@H](CCCNC(=N)N)NC(=O)[C@H](C)NC(=O)[C@H](CO)NC(=O)[C@H](CC(C)C)NC(=O)[C@H](CCC(N)=O)NC(=O)[C@H](CC)NC(=O)[C@H](CC(C)C)NC(=O)[C@@H](NC(=O)[C@H](CCCN)NC(=O)[C@H](CCCNC(=N)N)NC(=O)[C@H](Cc1ccc(O)cc1)NC(=O)[C@H](CO)NC(=O)[C@H](CC(N)=O)NC(=O)[C@@H](NC(=O)[C@H](Cc1ccccc1)NC(=O)[C@@H](NC(=O)[C@H](C)NC(=O)[C@H](CC(=O)O)NC(=O)[C@@H](C)NC(=O)CCc1ccc(O)cc1)[C@@H](C)CC)[C@@H](C)O)C(C)C)[C@@H](C)CC)C(=O)N[C@@H](CC(=O)O)C(=O)N[C@@H](CCCNC(=N)N)C(=O)NCCCCCCCC(N)=O
notes: also called Peptide 21300
Consider B2, for which the “Relative affinity” value in assay [1] is 1.2 fold. [NMeY]ADAIFTNSYR[Orn]VL[Abu]QLSAR[Orn]LLQDI[Nle]SR[GABA]-NHMe [P-27415 [N-Me-Tyr^1, Orn^12, Abu^15, Orn^21, Nle^27, Gab^30]hGHRH(1-30)NH-CH3]: in assay [2], the IC50 worked out at 3.02 nM and the Relative affinity (Binding potency) vs JI-38 was determined as 1.44 fold.

B3: P-29703 [N-Me-Tyr^1, Gln^8, Orn^12, Abu^15, Orn^21, Nle^27, Gln-Gab^30]hGHRH(1-30)NH2 (peptide)
chain: [NMeY]ADAIFTQSYR[Orn]VL[Abu]QLSAR[Orn]LLQDI[Nle]SRQ[GABA]-NH2
modifications: N-terminus assumed
SMILES: CCCC[C@H](NC(=O)[C@@H](NC(=O)[C@H](CC(=O)O)NC(=O)[C@H](CCC(N)=O)NC(=O)[C@H](CC(C)C)NC(=O)[C@H](CC(C)C)NC(=O)[C@H](CCCN)NC(=O)[C@H](CCCNC(=N)N)NC(=O)[C@H](C)NC(=O)[C@H](CO)NC(=O)[C@H](CC(C)C)NC(=O)[C@H](CCC(N)=O)NC(=O)[C@H](CC)NC(=O)[C@H](CC(C)C)NC(=O)[C@@H](NC(=O)[C@H](CCCN)NC(=O)[C@H](CCCNC(=N)N)NC(=O)[C@H](Cc1ccc(O)cc1)NC(=O)[C@H](CO)NC(=O)[C@H](CCC(N)=O)NC(=O)[C@@H](NC(=O)[C@H](Cc1ccccc1)NC(=O)[C@@H](NC(=O)[C@H](C)NC(=O)[C@H](CC(=O)O)NC(=O)[C@H](C)NC(=O)[C@H](Cc1ccc(O)cc1)NC)[C@@H](C)CC)[C@@H](C)O)C(C)C)[C@@H](C)CC)C(=O)N[C@@H](CO)C(=O)N[C@@H](CCCNC(=N)N)C(=O)N[C@@H](CCC(N)=O)C(=O)NCCCC(N)=O
For B3, the Relative affinity (Binding potency) vs JI-38 in assay [2] was determined as 3.57 fold.

B4: P-20351 [Ac-N-Me-Tyr^1, D-Ala^2, Gln^8, Orn^12, Abu^15, Orn^21, Nle^27, Asp^28, Agm^29]hGHRH(1-29)NH2 (peptide)
peptide: Ac-[NMeY][dA]DAIFTQSYR[Orn]VL[Abu]QLSAR[Orn]LLQDI[Nle]D[Agmatine]
SMILES: CCCC[C@H](NC(=O)[C@@H](NC(=O)[C@H](CC(=O)O)NC(=O)[C@H](CCC(N)=O)NC(=O)[C@H](CC(C)C)NC(=O)[C@H](CC(C)C)NC(=O)[C@H](CCCN)NC(=O)[C@H](CCCNC(=N)N)NC(=O)[C@H](C)NC(=O)[C@H](CO)NC(=O)[C@H](CC(C)C)NC(=O)[C@H](CCC(N)=O)NC(=O)[C@H](CC)NC(=O)[C@H](CC(C)C)NC(=O)[C@@H](NC(=O)[C@H](CCCN)NC(=O)[C@H](CCCNC(=N)N)NC(=O)[C@H](Cc1ccc(O)cc1)NC(=O)[C@H](CO)NC(=O)[C@H](CCC(N)=O)NC(=O)[C@@H](NC(=O)[C@H](Cc1ccccc1)NC(=O)[C@@H](NC(=O)[C@H](C)NC(=O)[C@H](CC(=O)O)NC(=O)[C@@H](C)NC(=O)[C@H](Cc1ccc(O)cc1)N(C)C(C)=O)[C@@H](C)CC)[C@@H](C)O)C(C)C)[C@@H](C)CC)C(=O)N[C@@H](CC(=O)O)C(=O)NCCCCNC(=N)N
notes: also called Peptide 20351
Take B4: the “Relative affinity” value in assay [1] was 1.26 fold.

[NMeY][dA]DAIFTQSYR[Orn]VL[Abu]QLSAR[Orn]LLQDI[Nle]D[Agmatine] (also called Peptide 20361) [P-20361 [N-Me-Tyr^1, D-Ala^2, Gln^8, Orn^12, Abu^15, Orn^21, Nle^27, Asp^28, Agm^29]hGHRH(1-29)NH2]: the “Relative affinity” value in assay [1] amounted to 5.3 fold.

B5: P-21301 [N-Me-Tyr^1, Orn^12, Abu^15, Orn^21, Nle^27, Asp^28, Amc^30]hGHRH(1-30)NH2 (peptide)
chain: [NMeY]ADAIFTNSYR[Orn]VL[Abu]QLSAR[Orn]LLQDI[Nle]DR[Aoc]-NH2
modifications: N-terminus assumed
SMILES: CCCC[C@H](NC(=O)[C@@H](NC(=O)[C@H](CC(=O)O)NC(=O)[C@H](CCC(N)=O)NC(=O)[C@H](CC(C)C)NC(=O)[C@H](CC(C)C)NC(=O)[C@H](CCCN)NC(=O)[C@H](CCCNC(=N)N)NC(=O)[C@H](C)NC(=O)[C@H](CO)NC(=O)[C@H](CC(C)C)NC(=O)[C@H](CCC(N)=O)NC(=O)[C@H](CC)NC(=O)[C@H](CC(C)C)NC(=O)[C@@H](NC(=O)[C@H](CCCN)NC(=O)[C@H](CCCNC(=N)N)NC(=O)[C@H](Cc1ccc(O)cc1)NC(=O)[C@H](CO)NC(=O)[C@H](CC(N)=O)NC(=O)[C@@H](NC(=O)[C@H](Cc1ccccc1)NC(=O)[C@@H](NC(=O)[C@H](C)NC(=O)[C@H](CC(=O)O)NC(=O)[C@H](C)NC(=O)[C@H](Cc1ccc(O)cc1)NC)[C@@H](C)CC)[C@@H](C)O)C(C)C)[C@@H](C)CC)C(=O)N[C@@H](CC(=O)O)C(=O)N[C@@H](CCCNC(=N)N)C(=O)NCCCCCCCC(N)=O
In assay [2], B5 had an IC50 of 2.99 nM and a Relative affinity (Binding potency) vs JI-38 of 1.45 fold.

B6: P-21303 [N-Me-Tyr^1, D-Ala^2, Orn^12, Abu^15, Orn^21, Nle^27, Asp^28, Amc^30]hGHRH(1-30)NH2 (peptide)
peptide: [NMeY][dA]DAIFTNSYR[Orn]VL[Abu]QLSAR[Orn]LLQDI[Nle]DR[Aoc]-NH2
modifications: N-terminus assumed
SMILES: CCCC[C@H](NC(=O)[C@@H](NC(=O)[C@H](CC(=O)O)NC(=O)[C@H](CCC(N)=O)NC(=O)[C@H](CC(C)C)NC(=O)[C@H](CC(C)C)NC(=O)[C@H](CCCN)NC(=O)[C@H](CCCNC(=N)N)NC(=O)[C@H](C)NC(=O)[C@H](CO)NC(=O)[C@H](CC(C)C)NC(=O)[C@H](CCC(N)=O)NC(=O)[C@H](CC)NC(=O)[C@H](CC(C)C)NC(=O)[C@@H](NC(=O)[C@H](CCCN)NC(=O)[C@H](CCCNC(=N)N)NC(=O)[C@H](Cc1ccc(O)cc1)NC(=O)[C@H](CO)NC(=O)[C@H](CC(N)=O)NC(=O)[C@@H](NC(=O)[C@H](Cc1ccccc1)NC(=O)[C@@H](NC(=O)[C@H](C)NC(=O)[C@H](CC(=O)O)NC(=O)[C@@H](C)NC(=O)[C@H](Cc1ccc(O)cc1)NC)[C@@H](C)CC)[C@@H](C)O)C(C)C)[C@@H](C)CC)C(=O)N[C@@H](CC(=O)O)C(=O)N[C@@H](CCCNC(=N)N)C(=O)NCCCCCCCC(N)=O
notes: also called Peptide 21303
As to B6, the “Relative affinity” value in assay [1] was 2.32 fold. [NMeY]ADAIFTQSYR[Orn]VL[Abu]QLSAR[Orn]LLQDI[Nle]SR-NHMe [P-27405 [N-Me-Tyr^1, Gln^8, Orn^12, Abu^15, Orn^21, Nle^27]hGHRH(1-29)NH-CH3]: in assay [2], the IC50 was found to be 1.08 nM and the Relative affinity (Binding potency) vs JI-38 was determined as 4.03 fold.

B7: P-25503 [N-Me-Tyr^1, Abu^2, Orn^12, Abu^15, Orn^21, Nle^27, Gab^30]hGHRH(1-30)NH2 (peptide)
chain: [NMeY][Abu]DAIFTNSYR[Orn]VL[Abu]QLSAR[Orn]LLQDI[Nle]SR[GABA]-NH2
modifications: N-terminus assumed
SMILES: CCCC[C@H](NC(=O)[C@@H](NC(=O)[C@H](CC(=O)O)NC(=O)[C@H](CCC(N)=O)NC(=O)[C@H](CC(C)C)NC(=O)[C@H](CC(C)C)NC(=O)[C@H](CCCN)NC(=O)[C@H](CCCNC(=N)N)NC(=O)[C@H](C)NC(=O)[C@H](CO)NC(=O)[C@H](CC(C)C)NC(=O)[C@H](CCC(N)=O)NC(=O)[C@H](CC)NC(=O)[C@H](CC(C)C)NC(=O)[C@@H](NC(=O)[C@H](CCCN)NC(=O)[C@H](CCCNC(=N)N)NC(=O)[C@H](Cc1ccc(O)cc1)NC(=O)[C@H](CO)NC(=O)[C@H](CC(N)=O)NC(=O)[C@@H](NC(=O)[C@H](Cc1ccccc1)NC(=O)[C@@H](NC(=O)[C@H](C)NC(=O)[C@H](CC(=O)O)NC(=O)[C@H](CC)NC(=O)[C@H](Cc1ccc(O)cc1)NC)[C@@H](C)CC)[C@@H](C)O)C(C)C)[C@@H](C)CC)C(=O)N[C@@H](CO)C(=O)N[C@@H](CCCNC(=N)N)C(=O)NCCCC(N)=O
Turning to B7, in assay [2], the IC50 was found to be 1.18 nM and the Relative affinity (Binding potency) vs JI-38 is 3.67 fold.

What is called IC50 is the point on the concentration scale where inhibition reaches its midpoint. Low values mean greater potency, high ones weaker potency.
